PMC8827073, “Topological and enzymatic analysis of human Alg2 mannosyltransferase reveals its role in lipid-linked oligosaccharide biosynthetic pathway” (Communications Biology, 2022)

Substrate: CC(=O)N[C@H]1[C@H](O[C@H]2[C@H](O)[C@@H](NC(C)=O)[C@@H](OP(=O)(O)OP(=O)(O)OCCC(C)CCCC(C)CCCC(C)CCCC(C)C)O[C@@H]2CO)O[C@H](CO)[C@@H](O[C@@H]2O[C@H](CO[C@H]3O[C@H](CO)[C@@H](O)[C@H](O)[C@@H]3O)[C@@H](O)[C@H](O)[C@@H]2O)[C@@H]1O
Test: UPLC-MS mannosyltransferase assay, nonlinear regression
Assay type: biochemical, Homo sapiens
Conditions: 2 mM GDP-Man, 10 mM MgCl2, pH 6.0, 0.05% NP-40, 37 °C, 10 min, substrate range 8-200 μM, substrate not further purified

B1: hAlg2 (Trx-hAlg2) (Homo sapiens) (protein)
chain: MAEEQGRERDSVPKPSVLFLHPDLGVGGAERLVLDAALALQARGCSVKIWTAHYDPGHCFAESRELPVRCAGDWLPRGLGWGGRGAAVCAYVRMVFLALYVLFLADEEFDVVVCDQVSACIPVFRLARRRKKILFYCHFPDLLLTKRDSFLKRLYRAPIDWIEEYTTGMADCILVNSQFTAAVFKETFKSLSHIDPDVLYPSLNVTSFDSVVPEKLDDLVPKGKKFLLLSINRYERKKNLTLALEALVQLRGRLTSQDWERVHLIVAGGYDERVLENVEHYQELKKMVQQSDLGQYVTFLRSFSDKQKISLLHSCTCVLYTPSNEHFGIVPLEAMYMQCPVIAVNSGGPLESIDHSVTGFLCEPDPVHFSEAIEKFIREPSLKATMGLAGRARVKEKFSPEAFTEQLYRYVTKLLV
notes: N-terminal His6-Trx tag kept (pET32), expressed in E. coli Rosetta (DE3), HisTrap purified; about 57 kDa on SDS-PAGE
  Km: 136.7 ± 30.4 µM
  kcat: 1.05 ± 0.13 s⁻¹
